Measurements as given in publication PMC3784475 (PLoS Pathogens, 2013).

Columns and labels:
[1] = molecular target: HIV gp140 SF162 trimers (HIV (isolate SF162)); assay: SPR; HIV gp140 SF162 trimers amine-coupled on a CM5 chip (3250 RU); HCDR3-grafted Ubq fusions injected at 1 µM and 5 or 10 µM; HBS-EP+ (10 mM HEPES pH 7.4, 150 mM NaCl, 3 mM EDTA, 0.05% P20); 25°C; duplicate runs
Strep-tagged Scn control = molecular target: T1, Strep-tagged Scn control (Homo sapiens, UniProt P80188); assay: SPR; about 3000 RU of each Scn-peptide fusion or Strep-tagged Scn control amine-coupled on CM5 chips; 4E10 IgG injected at 300 nM in HBS-EP+ or HBS-EP+ at 500 mM NaCl; 25°C; responses normalised by specific activity; conditions: both partners purified
T1 construct: siderocalin (Scn), human; also called siderocalin construct minus peptide; not shown: Strep-tag, C-terminal, kept

Molecule | Kd [1] [µM] | binding result (Strep-tagged Scn control)
2F5 HCDR3-grafted ubiquitin fusion (designed binder) | > 10 | –
4E10 HCDR3-grafted ubiquitin fusion (designed binder) | > 10 | –
b12 HCDR3-grafted ubiquitin fusion (designed binder) | > 10 | –
4E10 IgG (antibody, V domains shown, variable domain in PDB 4LLV (4E10 Fv, solved here), 2FX7 (4E10 Fab) and 3H3P; IgG, the bivalent form; also called bNAb 4E10; Polymun AB004; source: bought: Polymun Scientific; copies: 2 + 2) VH: QVQLVQSGAEVKRPGSSVTVSCKASGGSFSTYALSWVRQAPGRGLEWMGGVIPLLTITNYAPRFQGRITITADRSTSTAYLELNSLRPEDTAVYYCAREGTTGWGWLGKPIGAFAHWGQGTLVTVSS VL: EIVLTQSPGTQSLSPGERATLSCRASQSVGNNKLAWYQQRPGQAPRLLIYGASSRPSGVADRFSGSGSGTDFTLTISRLEPEDFAVYYCQQYGQSLSTFGQGTKVEVK | – | no binding (tested: 300 nM)
